Reference: patent publication US20050282743A1, “Molecular interactions in cells” (Arbor Vita Corporation, priority 2001, published 2005)
Blank lines part the entries; values can stand above or below the binder they belong to.

Tests used:
[1] = target: T1, GST-ERBIN PDZ domain 1 (Homo sapiens (Human)), Q96RT1; assay: G assay titration, PDZ 5 ug/ml
T1 chain: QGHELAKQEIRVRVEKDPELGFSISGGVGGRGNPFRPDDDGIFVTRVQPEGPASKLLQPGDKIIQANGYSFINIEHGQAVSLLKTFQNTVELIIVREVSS

[2] = target: GST-KIAA1634 PDZ domain 4 (Homo sapiens (Human)), Q5TCQ9; assay: G assay titration, PDZ 5 ug/ml
[3] = target: T2, GST-KIAA0807(S) PDZ domain 1 (Homo sapiens (Human)), Q6P0Q8; assay: G assay titration, PDZ 0.1 ug/ml
T2 chain: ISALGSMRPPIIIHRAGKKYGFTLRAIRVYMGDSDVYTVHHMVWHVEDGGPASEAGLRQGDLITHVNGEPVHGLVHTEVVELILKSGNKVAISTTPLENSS

[4] = target: T3, GST-TIP1 PDZ domain 1 (Table 9 insert) (Homo sapiens (Human)), O14907; assay: G' assay; note: key of the grades not given here
T3 chain: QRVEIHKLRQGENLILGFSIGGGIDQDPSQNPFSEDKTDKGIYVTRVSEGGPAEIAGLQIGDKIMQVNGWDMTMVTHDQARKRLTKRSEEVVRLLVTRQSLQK

[5] = target: T4, GST-INADL PDZ domain 8 (Homo sapiens (Human)), Q8NI35; assay: G' assay; note: key of the grades not given here
T4 chain: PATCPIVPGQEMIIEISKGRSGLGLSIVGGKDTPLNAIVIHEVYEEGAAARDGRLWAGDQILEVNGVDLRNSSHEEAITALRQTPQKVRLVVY

[6] = target: T5, GST-NeDLG PDZ domain 3 (Mus musculus (Mouse)), P70175; assay: G' assay; note: key of the grades not given here
T5 chain: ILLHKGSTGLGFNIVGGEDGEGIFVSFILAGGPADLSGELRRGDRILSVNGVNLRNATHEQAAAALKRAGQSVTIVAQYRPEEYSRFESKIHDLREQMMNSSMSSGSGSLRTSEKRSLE

[7] = target: T6, GST-KIAA1526 PDZ domain 1 (Homo sapiens (Human)), Q9P202; assay: G' assay; note: key of the grades not given here
T6 chain: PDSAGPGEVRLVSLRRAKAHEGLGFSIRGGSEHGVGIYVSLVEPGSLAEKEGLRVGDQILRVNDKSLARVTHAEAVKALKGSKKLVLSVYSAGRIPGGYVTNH

[8] = target: T7, GST-MUPP1 PDZ domain 10 (Homo sapiens (Human)), O75970; assay: G' assay; note: key of the grades not given here
T7 chain: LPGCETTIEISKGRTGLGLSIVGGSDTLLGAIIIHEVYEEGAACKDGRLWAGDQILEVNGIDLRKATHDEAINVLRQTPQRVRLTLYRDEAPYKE

[9] = target: GST-KIAA807 [GST: P08515]; assay: G' assay; note: key of the grades not given here
[10] = target: T1, GST-ERBIN PDZ domain 1 (Homo sapiens …); assay: G' assay; note: key of the grades not given here
[11] = target: T8, GST-Outer Membrane PDZ domain 1 (Homo sapiens (Human)), P57105; assay: G' assay; note: key of the grades not given here
T8 chain: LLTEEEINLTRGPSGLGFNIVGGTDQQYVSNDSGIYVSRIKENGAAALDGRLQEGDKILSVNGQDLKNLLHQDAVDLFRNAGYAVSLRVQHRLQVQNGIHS

[12] = target: T9, GST-Syntrophin 1 alpha PDZ domain 1 (Homo sapiens (Human)), Q13424; assay: G' assay; note: key of the grades not given here
T9 chain: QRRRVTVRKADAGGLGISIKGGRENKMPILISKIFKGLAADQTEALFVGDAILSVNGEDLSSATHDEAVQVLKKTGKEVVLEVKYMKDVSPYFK

[13] = target: T10, GST-KIAA0973 PDZ domain 1 (Homo sapiens (Human)), Q9Y2H9; assay: G' assay; note: key of the grades not given here
T10 chain: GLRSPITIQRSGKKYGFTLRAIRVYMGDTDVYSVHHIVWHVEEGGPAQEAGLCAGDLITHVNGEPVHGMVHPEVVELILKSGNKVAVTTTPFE

[14] = target: T11, GST-DLG1 PDZ domain 2 (Homo sapiens), Q12959; assay: G' assay; note: key of the grades not given here
T11 chain: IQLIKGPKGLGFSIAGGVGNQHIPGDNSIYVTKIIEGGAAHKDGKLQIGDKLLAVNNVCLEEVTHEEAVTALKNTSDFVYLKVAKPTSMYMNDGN

[15] = target: GST-BAI-1 Associated Protein PDZ domain 5 (Homo sapiens (Human)), Q96QZ7; assay: G' assay; note: key of the grades not given here
[16] = target: T12, GST-KIAA0380 PDZ domain 1 (Homo sapiens (Human)), O15085; assay: G' assay; note: key of the grades not given here
T12 chain: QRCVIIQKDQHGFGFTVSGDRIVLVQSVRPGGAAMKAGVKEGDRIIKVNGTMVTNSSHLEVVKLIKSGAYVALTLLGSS

[17] = target: T13, GST-ZO-3 PDZ domain 3 (Homo sapiens (Human)), O95049; assay: G' assay; note: key of the grades not given here
T13 chain: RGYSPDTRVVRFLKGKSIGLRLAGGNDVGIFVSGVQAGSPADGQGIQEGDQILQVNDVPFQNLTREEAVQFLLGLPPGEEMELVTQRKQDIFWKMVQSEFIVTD

[18] = target: T2, GST-KIAA0807(S) PDZ domain 1 (Homo …); assay: G' assay; note: key of the grades not given here
[19] = target: GST-KIAA1634 PDZ domain 4 (Homo sapiens (Human)), Q5TCQ9; assay: G' assay; note: key of the grades not given here
[20] = target: T14, GST-MINT1 PDZ domains 1, 2, Q02410; assay: G' assay; note: key of the grades not given here
T14 chain: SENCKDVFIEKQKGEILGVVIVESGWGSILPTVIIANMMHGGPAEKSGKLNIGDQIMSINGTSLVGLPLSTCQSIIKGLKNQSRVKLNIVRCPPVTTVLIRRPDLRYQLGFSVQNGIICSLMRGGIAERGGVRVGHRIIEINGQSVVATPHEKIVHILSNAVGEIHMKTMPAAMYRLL

[21] = target: T15, GST-KIAA1719 PDZ domain 5 (Homo sapiens (Human)), Q9C0E4; assay: G' assay; note: key of the grades not given here
T15 chain: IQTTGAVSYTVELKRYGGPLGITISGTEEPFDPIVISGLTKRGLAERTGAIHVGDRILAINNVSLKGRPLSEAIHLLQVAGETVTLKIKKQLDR

[22] = target: GST-TAX IP2 PDZ domain 1 [GST: P08515]; assay: G' assay; note: key of the grades not given here
[23] = target: GST-KIAA1634 PDZ domain 1 (Homo sapiens (Human)), Q5TCQ9; assay: G' assay; note: key of the grades not given here
[24] = target: T16, GST-KIAA1719 PDZ domain 2 (Homo sapiens (Human)), Q9C0E4; assay: G' assay; note: key of the grades not given here
T16 chain: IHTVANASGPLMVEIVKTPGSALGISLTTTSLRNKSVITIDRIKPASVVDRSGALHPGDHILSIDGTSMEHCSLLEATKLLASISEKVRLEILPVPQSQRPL

Chain of GST-KIAA1634 PDZ domain 4 (Homo sapiens (Human)), Q5TCQ9 (Q5TCQ9 844-945): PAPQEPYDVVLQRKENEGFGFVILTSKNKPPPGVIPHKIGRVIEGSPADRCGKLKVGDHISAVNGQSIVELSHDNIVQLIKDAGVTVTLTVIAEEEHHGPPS
Chain of GST-KIAA1634 PDZ domain 1 (Homo sapiens (Human)), Q5TCQ9 (Q5TCQ9 401-502): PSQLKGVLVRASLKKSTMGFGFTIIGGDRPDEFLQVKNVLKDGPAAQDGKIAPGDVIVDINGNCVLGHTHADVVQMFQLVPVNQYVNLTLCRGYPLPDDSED
Chain of GST-TAX IP2 PDZ domain 1 [GST: P08515] (P08515 whole entry, the tested form may be a part): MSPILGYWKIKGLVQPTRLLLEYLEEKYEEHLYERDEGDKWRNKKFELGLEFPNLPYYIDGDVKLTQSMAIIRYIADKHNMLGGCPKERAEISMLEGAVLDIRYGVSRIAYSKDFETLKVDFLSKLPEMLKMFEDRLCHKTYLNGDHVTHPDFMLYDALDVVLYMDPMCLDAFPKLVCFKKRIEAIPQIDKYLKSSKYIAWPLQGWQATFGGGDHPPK
Chain of GST-KIAA807 [GST: P08515] (P08515 whole entry, the tested form may be a part): as above
Chain of GST-BAI-1 Associated Protein PDZ domain 5 (Homo sapiens (Human)), Q96QZ7 (Q96QZ7 988-1099): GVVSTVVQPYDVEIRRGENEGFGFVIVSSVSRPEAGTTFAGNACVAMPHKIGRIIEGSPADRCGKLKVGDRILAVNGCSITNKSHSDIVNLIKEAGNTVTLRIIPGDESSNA

- Kd [1]: 7 µM
- Kd [2]: 8 µM
- Kd [3]: 1 µM
- Classification [4]: 5 A450 class
- Classification [5]: 1 A450 class
- Classification [6]: 3 A450 class
- Classification [7]: 1 A450 class
- Classification [8]: 1 A450 class
- Classification [9]: 4 A450 class
- Classification [10]: 4 A450 class
- Classification [11]: 4 A450 class
- Classification [12]: 1 A450 class
- Classification [13]: 5 A450 class
- Classification [14]: 2 A450 class
- Classification [15]: 2 A450 class
- Classification [16]: 1 A450 class
- Classification [17]: 1 A450 class
- Classification [18]: 4 A450 class
- Classification [19]: 3 A450 class
B1: CITRON protein (peptide)
peptide: AGAVRTPLSQVNKVWDQSSV
modifications: not checked

- Classification [4]: 1 A450 class
- Classification [20]: 1 A450 class
- Classification [21]: 1 A450 class
- Classification [22]: 1 A450 class
- Classification [23]: 1 A450 class
- Classification [24]: 1 A450 class
B2: CKR5 (HIV Co-receptor) (peptide)
peptide: ERASSVYTRSTGEQEISVGL
modifications: not checked
